In the DeepSol protein solubility set:

Test: soluble on expression in E. coli; label from the status in PepcDB or PDB records

Sequence | soluble on expression in E. coli
MTKQREKLIEVKNVKQHFDVSGGVVKAVNDISFDIYRGETFGLVGESGCGKSTTGRTIIRLYDATAGEVLFDGENVHGKKSRAELKKFNRKMQMIFQDPYASLNPRMTVGDIIAEGIDIHGLAKNKKERMDRVHELLNTVGLNKEHANRFPHEFSGGQRQRIGIARALAVEPEFIIADEPISALDVSIQAQVVNLLKKLQKEKGLTYLFIAHDLSMVKYISDRIGVMYRGQIVELTTSDELYANPIHPYTKSLLSAIPLPDPDYERNRKRIVYDPSQHNYGSEEPTMREIRPGHFVLCSEAEYKKYKEIYQ | not soluble
MTKQVKIYHNPRCSKSRETLNLLKENGVEPEVVLYLETPADAATLRDLLKILGMNSARELMRQKEDLYKELNLADSSLSEEALIQAMVDNPKLMERPIVVANGKARIGRPPEQVLEIVG | not soluble
MTKTEGKTASAAVKDILLSNPDGLREVIRTVMQEVLEAEMDEALGAAKGERTPERLGYRSGHYGRTLITRVGKLELRVPQDRSGHFSTELFERYQRSERALVATLAEMYVQGVSTRKVKAITEELCGHAFSASSISAINKRLDESLKAFAERSLEEPFAYLILDARYEKVREAGVVMSQAVLIAVGIDWDGRRQILSVEMAGRESRSAWKDFLVRLKGRGLKGVELVVSDDHAGLVAAIGEVIPEAAWQRCYVHFLRNALDHLPRKHGDDCLQELRWLYDRRDLDEAKADLAAWLGKWSVRYPRLTSWVEETIEQTLTFFRLPRQHHKHLKSTNMLERLNEEIRRRTYVVRIFPNTESCLRLVRALAVETHENWMEANRYINMDDLREHKKLALRQAA | not soluble
MTKVHVVLRKEDIDEMALADRKVAVVFDVLLATSSITAVLAAGARSVIPVRDAEEAKEIALRLPEGSYELVGEYEGRTIAGFHPPAPLFLQTVCPGKTVVLSTTNGTVAIRRAQPARAVYAASLLNSPAVSEHICRLHQEETIIVICSGSSGRFCLEDFYGAGYFVHCLIEQGINAAELSDSATAAWFFYRQYSDEGKAKEVLSASRVGRWMTAYGLEKEIDYINRHGSLSAVPKLELGPFGLELRNMASTKVAKEGISP | soluble
MTKVSIIVPVYNTKNYVPRLLTSIEKQTYTNWELILVDDHSNDGTYELLLEFKDRYPNKVEVLKTPKPRSGPMIGKNMGIEVSSGKFLAFVDSDDWWSETFLKDTVSNIKSFGGVSTEYYDVFEDSDKKVHVKASKHGVVSWEDVLKLKARFGNGNSLLRRKIVENYGIRFPEHLWYSEDIYFYTQYLSVIDRIYVVPSPDFYHLVRGASMVRSDKIKQESKIEQTIRVYEEVCTRIQEISKVSDEVCKLLKSYQMPYSIMTYITSVSDSLGRAEARKLFWKYLDYLKGYRLTRSHQSYLTLLWILDLFIPIRGILRRLIGLEHHHHHH | soluble
MTLDECIRLAWKQNPSVRNSVIDIKEARADYMAAVGAFLPRAAVNAETGKRFGRSIDPDTNGYTNETFEEGTVGLDMTLSLFEGFSRIHQVRFRKMNKERSEWALKNRQNELAYQVTDAYYKLILERKLLNLALEQSRLSERYLKQTEAFVELGLKSASDLQEVKARREGDIYRYKSRENTCRLALLHLEQLMNFQPGDTLVIQDTIVEANQLPLLSVPSTETLYAQSLEILPVMRMIDLKRKAARKEYAMAGGTFSPSVYARFTVGSNFYNTVFSARQLRDNIGKYVGIGISFPLLSGLERLTHQRKQKLNLYRLKNEEELEKQQLYTDIEQTLLSLHAGFSEHQQALQQLEAEALVLKESERKWEEGLISVFQLMEARNRFISAKAELVRVRLQVEMMRKLEKYYREGTFL | not soluble
MTLFDRKTFDRVLGEWPGVRFVDQWDSHVAKVGDKVFAVLGEREDWRLVVKCSEESFEILTSLEGIAQAPYFAKRKWISIGDHSPLEQEELEHYVRRSYELVAAGLTKKLRGELGIVIDNAPRL | soluble
MTLKGRIHSFESFGTLDGPGIRFVVFMQGCPLRCIYCHNRDTWDVNAGSEYTPRQVIDEMMKYIDYIKVSGGGITVTGGEPVLQADFVAEVFRLAKEQGVHTALDTNGFADIEKVERLIKYTDLVLLDIKHAREDKHKIITGVSNEKIKRFALYLSDQGVPIWIRYVLVPGYTDDEDDLKMAADFIKKLKTVEKIEVLPYHNMGAYKWEKLGQKYMLEGVKGPSAQEVEKAKRILSGK | soluble
MTLKMGRVKWFNQSEGYGFISPHDGGSDVYVNKTAIANTKNKSLNEGQDVEFSTYRSIHGPSAADVIAF | not soluble
MTLLRTTLLSSLLATVVLGASAAPRTEVIPLNYRTADDVMAVAQSVIGSEGKVTAYGNQLIVNAEPAKIRELQSVLQQIDSRPHRLLITVDTSENLQQDSRGYSVDGSASAGNIEIQSGRGEVNGKDRVRIIRRSTDSRSGGSQQVQATEGYPALIQVGQSVPITSTATGPYGQIYSQTEYRNVNRGFYVTATLTGNLVHVTISSSNDRLSQSHPGVIDTQSTDTRVSGKLGEWITLGGVSEQNQADQRGFVRRYSTQGRDDTSLRLKVETLDLEHHHHHH | not soluble
MTLMVPFKQVDVFTEKPFMGNPVAVINFLEIDENEVSQEELQAIANWTNLSETTFLFKPSDKKYDYKLRIFTPRSELPFAGHPTIGSCKAFLEFTKNTTATSLVQECKIGAVPITINEGLISFKAPMADYESISSEMIADYEKAIGLKFIKPPALLHTGPEWIVALVEDAETCFNANPNFAMLAHQTKQNDHVGIILAGPKKEAAIKNSYEMRAFAPVINVYEDPVCGSGSVALARYLQEVYKFEKTTDITISEGGRLKRNGLMLASIKKEADNSTSYYIAGHATTVIDGKIKVHHHHHH | soluble
MTLNLSVDEVLTTTRSVRKRLDFDKPVPRDVLMECLELALQAPTGSNSQGWQWVFVEDAAKKKAIADVYLANARGYLSGPAPEYPDGDTRGERMGRVRDSATYLAEHMHRAPVLLIPCLKGREDESAVGGVSFWASLFPAVWSFCLALRSRGLGSCWTTLHLLDNGEHKVADVLGIPYDEYSQGGLLPIAYTQGIDFRPAKRLPAESVTHWNGW | soluble
MTLQQEIIQALGAKPHINPEEEIRRSVDFLKAYLKTYPFLKSLVLGISGGQDSTLAGKLSQMAIAELREETGDNALQFIAVRLPYGVQADEQDCQDAIAFIQPDRVLTVNIKGAVLASEQALREAGIELSDFVRGNEKARERMKAQYSIAGMTHGVVVGTDHAAEAITGFFTKYGDGGTDINPLHRLNKRQGKQLLAALGCPEHLYKKVPTADLEDDRPSLPDEAALGVTYDNIDDYLEGKTLDPAIAKTIEGWYVKTEHKRRLPITVFDDFWKR | soluble
MTLSFRVNPEYAAMSEIVPGLFICGVSALSKDEMKKHKITHIINATTEVPNLRSLGDIQRTKLWLEDTPQTYIYPHLELQSDQIQALIADGGKVLVHCVAGVSRSASICLAFLLKYRCRNLREAYHLMKSKRSMVRPNLGFWRQLIAYEQNVKENAGSVRLVRDEAQPEQLLPDVYLNIAIPARPASPEQDPNMIPDEPRERRNSGFKSKFRPVLEPVMEMAEAVC | not soluble
MTMKEKKLKIDISGVDPICNKSKGDDFYDVVNRQLSRRSFLKGGLGVAVSSFMLSPLMAGCTSSKGTARSSAGLGFQAIAGNRTDVVDVPVGYRAQPFLPWGTPLVPGAGEFKTDASNSALDQARQVGSHHDGMHFFPIDVKEGGASSKEGLLVMNHEYVDPQILHASFSPNAPRPQQEVLKEMMAHGVSVAHIIRKPDGEWQLVEGSPYNRRITASTPMQMSGPVAGHDKLVTRFSPDGTKTRGTINNCSHGHTPWGTYLTCEENWAGCFMNDDDTHPREHERYGVNRENSRYYWETATPGLDETLRFNASSTGSTAADDYRNEPNHFGWIVEIDPFNAKSTPVKRSMLGRFAHEGIVFAPAVEGEPLVAYSGDDSRFEYIYKFVSAKPYYKATASGELLNEGTLYVAQFNDDGTGRWLPLDIENSEFQAKASEAGVGFHSQADVLLNTRLAADVMGATKMDRPEWGAVHPTTKEVYFSLTNNTRRTEVQTNAVNPRAENAYGHIVRWSEDNQQSAESFHWDIFLMGGEAGTRTPNAEGKDLTLTSNNQFACPDGLWFDHRGTLWIQTDMSGELLSEGSFGNNGMYAANPESGELKRFLVGPVDCEITGVVTTPDGKTMFVNVQHPGDRLAPGKFSLEHHHHHH | soluble
MTMKEVEITAESLAKLTPAKQPNDTTTRVNSLSYGLKGDHMIMSTDDDSMFLYDMNTGLRSRSVNSKKYGCSHVKFASDSMCALHGSTKVDNTIRYLSLTDNKYIRYFQGHDKLVTGINVSPMDDMFLSVAEDKTIRLWDLKTHNCIGLMNLSATPIATFDPEGLLFAAGLDNNIIKLYDLRSFDKGPFSSFGPLENEDNVEWTAMRFSPCGKYIMICTNSSQLLLVDAFTGLIKFTLEEHQNAQKIPLMASFTPESSHIMVGSSDGYIYFYDVETGEIALKTLAPNNQTCHIAEFSPQHFVAATADTKLTLWCASDELKAQAQQS | not soluble
MTMVQPSGGGASGRGSSSGLADVIDTILDKGLVIDAFVRVSVVGIEILTIDARIVVASVDTYLRFAEATNRLDLTQTGGKGLPEVLQDTTQGVSKSKTKGIAQGALETAGEKLRDIIGEPEEEEEPAPRRRRRREEE | not soluble
MTNAGTTDLSWLPSDADEQLALGFKIVTNAYKTRVTSQEAEIRSLKGQLTEKQEQLSSIQKKYSNLEVQLIESTQRGNQLADENKQLITTIKKLNRDIDRLENLKKAVLNSIQEEHDVEDAHKYYSADDLLQTTAPRTMLEMNGNEDSCQSIINKIVNSDTHNIINGSFNSPYIGNVPLGEKNTDGRAFFRNARSRLSYEQFNQFLSNIKKLNNHQQKREETLKKAQAIFGEANLDLYEEFKVLISKHS | not soluble
MTNESEVGVKKAAELLRQGATMLEEACPICKMPLFKLKNGDVVCPVHGKVYIVKSDDEEKIVKRNLQLDEIESILIDGLYLSAKKMKEDPLDSERIIQIIRYLDALERLRKIKINSSE | not soluble
MTNISIPGNWQTCDVEAMDGDFDDNMLQFLGSFEEVLPEGVEVETKKGMKKKNKPKKVENTERPEEDAKCVEERRLAKKLRRKEQMAANRKQKKERLAKRKQKEAESSAKKSENATETTTEKPKEQKKRKGGENGDTGKPKKSKKEASKKTDISAWKQFYFLPNEVLEAIEQMGFSEPTEIQSAVLPAAVRDRQDVLGAAETGSGKTLAFGIPLVARLLESSDDSQETESTEVRGPRALIVAPTRELVIQIMKHINALISTTQLIATSIVGGLAQVKQERIISQQRPDIVVATPGRLWAMMQEAETGEFLAEWKDLKCLVVDETDRMVEEGYFAELTHILNKIHEESEKEKLQTLVFSATLTFAKAQDVAEEEKKKAKELSSQQKIQRLIKLTGLRENKHKVIDLTRQMGTAGCLVEARINCGNLLEKDTSLVYLLTRYPGRTIVFVNSIDAARRLYSVLKSVNIDPMILHAKMIQKQRLKNLEKFSESKNAVLLATDVAARGLDIQGIDHVIHYQVPKKVEIYIHRSGRTARASHRGLTVVLVDPPSRQFYMKLCKGLNRMQDLNVFPIDFEPLMNAIKKRVRLASEIDSLGFRCKKIKMSESWFEKAARAADLDYDETRHREMDGLNLEVDTMVQKSRQLQAQLRTELSLPLPRVDGSDSMKTKYITPEIVARLRSVGDNAIDVLNQKIDETKEWKRKSRKATREDEMNSMKKSLKSSQKNKERLAEKKKKEKAAKVTKLSETD | not soluble
MTNIWKKNYETAKEVEEFVKKAYELGDVTELELLRAKRERSIAEVKLKVSRSKYEASLKELSRLLAKEVRDVEGELSAGVAMKEVNIDTLPVVLSIKKKIEAIDRQIQLEKALAKPKLATGFVVEESEEGYYGLRGSLTLELPLFYRREGEILQNIAMKKALKRRLEAELLKVKSRLESVKIRLETLQKELEKLEREVIPRAREELALAIKSYKLKAITLLELSDVRRKYYELLINRAELLLDIHRTYSEFIEIGGWRR | not soluble
